Earlier results, collected in publication PMC7109197.
pKd: −log10 of the molar value. Read-outs that look alike come from different tables or passages of the source.

Columns and labels:
Test in all cases: NMR
[1] = target: cardiac troponin C CTD (Homo sapiens) (UniProt P63316)
[2] = target: cardiac troponin C CTD (Homo sapiens) (UniProt P63316); remark: listed apart in the source
[3] = target: cardiac troponin C N-domain (Homo sapiens) (UniProt P63316)
[4] = target: cardiac troponin C N-domain (Homo sapiens) (UniProt P63316); remark: listed apart in the source

| Substance | pKd [1] | pKd [2] | pKd [3] | pKd [4] |
| --- | --- | --- | --- | --- |
| cardiac troponin I 34-71 (from UniProt P19429) | > 6.00 | 5.52 |  |  |
| cTnI switch peptide switch peptide (from UniProt P19429) |  |  | 3.43 | 3.22 |
